Reference: patent US20250276018A1 (AFFYIMMUNE THERAPEUTICS, published 2025)
Where two headings read alike, the source gives them in different places.

Key:
[1] = biological target: T1, c-MET on human target cells (human, UniProt P08581 25-1390); test: cell-based or functional assay
[2] = biological target: T1, c-MET on human target cells; test: cell-based or functional assay; remark: listed apart in the source
[3] = biological target: T1, c-MET on human target cells; test: cell-based or functional assay; remark: listed apart in the source
[4] = biological target: T1, c-MET on human target cells; test: cell-based or functional assay; remark: listed apart in the source
[5] = biological target: T1, c-MET on human target cells; test: cell-based or functional assay; remark: listed apart in the source
[6] = biological target: T2, AF647 labeled c-met protein (UniProt P08581 25-932, limits assumed, labeled with AlexaFluor 647 (AF647)); test: flow cytometry, AF647-labeled c-met protein titrated on CAR-T cells (Round 1)
T2 construct: Soluble labeled c-met protein titrated on CAR-T cells
T2 sequence (P08581 25-932 limits assumed): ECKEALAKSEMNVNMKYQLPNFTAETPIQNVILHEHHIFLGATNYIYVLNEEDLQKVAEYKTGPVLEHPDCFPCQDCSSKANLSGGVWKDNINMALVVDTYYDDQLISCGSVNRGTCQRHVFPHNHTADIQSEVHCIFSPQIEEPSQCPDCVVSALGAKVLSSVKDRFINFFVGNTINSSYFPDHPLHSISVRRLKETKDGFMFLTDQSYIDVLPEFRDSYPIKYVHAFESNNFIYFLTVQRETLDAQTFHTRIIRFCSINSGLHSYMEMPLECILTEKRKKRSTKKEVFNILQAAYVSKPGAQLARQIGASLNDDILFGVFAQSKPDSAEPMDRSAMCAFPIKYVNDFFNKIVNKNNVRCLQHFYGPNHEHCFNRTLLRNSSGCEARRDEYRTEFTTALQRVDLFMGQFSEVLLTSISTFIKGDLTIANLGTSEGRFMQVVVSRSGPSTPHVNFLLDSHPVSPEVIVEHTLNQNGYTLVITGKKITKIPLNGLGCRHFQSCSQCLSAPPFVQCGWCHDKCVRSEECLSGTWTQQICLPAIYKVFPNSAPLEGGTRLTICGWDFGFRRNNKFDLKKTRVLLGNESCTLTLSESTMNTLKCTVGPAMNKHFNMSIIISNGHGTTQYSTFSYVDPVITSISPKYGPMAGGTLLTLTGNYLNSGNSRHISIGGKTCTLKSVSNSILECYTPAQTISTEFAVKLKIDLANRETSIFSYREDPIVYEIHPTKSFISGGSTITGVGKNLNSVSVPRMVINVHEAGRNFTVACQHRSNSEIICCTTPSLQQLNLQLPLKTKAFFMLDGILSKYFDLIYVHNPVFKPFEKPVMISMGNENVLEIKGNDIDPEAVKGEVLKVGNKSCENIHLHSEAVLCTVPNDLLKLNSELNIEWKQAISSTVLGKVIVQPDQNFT
Method: (§1) Binding of labeled c-MET to CAR-T cells expressing the affinity tuned c-MET scFvs was evaluated by transducing lentivirus anti-c-MET CAR particles into human T cells to form c-MET CAR-T cells incubated with AF647-labeled c-MET. […] Following a 48 hr. incubation at 37° C., the culture media was brought up to […] per well and incubated at 37° C. for 10 days.
(§2) Cells were stained on ice for 30 mins and then washed with PBS. After washing, residually bound protein on CAR T cells were measured on a flow cytometer (Beckman, CytoFLEX®). The resulting binding data was fit using a non-linear regression analysis on GraphPad Prism to calculate half effective dose concentration (EC₅₀) values. The results of this analysis are shown in FIGS. 2-5 and Tables 2-5 below.

[7] = biological target: T1, c-MET on human target cells; test: cell-based or functional assay; remark: listed apart in the source
[8] = biological target: T1, c-MET on human target cells; test: cell-based or functional assay; remark: listed apart in the source
[9] = biological target: T1, c-MET on human target cells; test: cell-based or functional assay; remark: listed apart in the source
[10] = biological target: T1, c-MET on human target cells; test: cell-based or functional assay; remark: listed apart in the source
[11] = biological target: T1, c-MET on human target cells; test: cell-based or functional assay; remark: listed apart in the source
[12] = biological target: T1, c-MET on human target cells; test: cell-based or functional assay; remark: listed apart in the source
[13] = biological target: T2, AF647 labeled c-met protein; test: flow cytometry, AF647-labeled c-met protein titrated on CAR-T cells (Round 2)
Method: as §1, §2

[14] = biological target: T1, c-MET on human target cells; test: cell-based or functional assay; remark: listed apart in the source
[15] = biological target: T1, c-MET on human target cells; test: cell-based or functional assay; remark: listed apart in the source
[16] = biological target: T1, c-MET on human target cells; test: cell-based or functional assay; remark: listed apart in the source
[17] = biological target: T1, c-MET on human target cells; test: cell-based or functional assay; remark: listed apart in the source

T1 sequence (P08581 25-1390): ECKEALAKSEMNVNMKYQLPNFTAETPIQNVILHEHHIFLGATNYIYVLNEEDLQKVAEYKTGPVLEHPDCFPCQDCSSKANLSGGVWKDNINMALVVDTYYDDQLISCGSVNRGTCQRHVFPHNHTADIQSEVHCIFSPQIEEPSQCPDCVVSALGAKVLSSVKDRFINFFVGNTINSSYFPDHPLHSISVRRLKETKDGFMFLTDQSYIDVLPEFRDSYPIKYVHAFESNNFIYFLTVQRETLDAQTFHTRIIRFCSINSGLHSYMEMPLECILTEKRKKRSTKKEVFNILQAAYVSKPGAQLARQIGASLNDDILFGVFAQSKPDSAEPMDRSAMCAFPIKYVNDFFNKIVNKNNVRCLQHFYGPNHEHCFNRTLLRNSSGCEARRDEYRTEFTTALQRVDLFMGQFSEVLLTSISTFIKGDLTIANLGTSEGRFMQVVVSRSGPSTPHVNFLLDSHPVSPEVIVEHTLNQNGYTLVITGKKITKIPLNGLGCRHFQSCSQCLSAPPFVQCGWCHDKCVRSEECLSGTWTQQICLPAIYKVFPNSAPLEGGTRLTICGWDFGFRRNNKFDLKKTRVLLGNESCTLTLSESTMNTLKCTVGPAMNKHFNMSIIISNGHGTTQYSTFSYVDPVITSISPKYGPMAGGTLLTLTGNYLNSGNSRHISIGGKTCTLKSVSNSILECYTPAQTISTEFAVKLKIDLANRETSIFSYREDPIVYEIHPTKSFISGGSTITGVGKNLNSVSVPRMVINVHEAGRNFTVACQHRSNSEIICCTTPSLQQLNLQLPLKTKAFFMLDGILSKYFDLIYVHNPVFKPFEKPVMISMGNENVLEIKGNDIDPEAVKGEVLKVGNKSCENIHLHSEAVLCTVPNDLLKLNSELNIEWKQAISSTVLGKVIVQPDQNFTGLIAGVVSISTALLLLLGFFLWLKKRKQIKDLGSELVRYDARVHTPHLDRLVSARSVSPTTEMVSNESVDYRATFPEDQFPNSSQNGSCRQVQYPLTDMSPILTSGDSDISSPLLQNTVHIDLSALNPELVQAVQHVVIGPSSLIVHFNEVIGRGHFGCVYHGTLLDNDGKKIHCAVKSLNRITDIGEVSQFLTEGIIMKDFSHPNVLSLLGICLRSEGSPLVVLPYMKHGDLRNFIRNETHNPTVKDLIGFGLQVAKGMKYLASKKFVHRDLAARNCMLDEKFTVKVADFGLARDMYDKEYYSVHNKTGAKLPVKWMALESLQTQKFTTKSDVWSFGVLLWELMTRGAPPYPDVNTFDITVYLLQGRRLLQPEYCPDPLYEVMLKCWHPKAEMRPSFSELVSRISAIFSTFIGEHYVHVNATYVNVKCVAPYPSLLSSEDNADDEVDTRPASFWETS

B1: Affy7 CAR (control) (other)
chain: GSEQKLISEEDLGSQVQLQQSGPELVRPGASVKMSCRASGYTFTSYWLHWVKQRPGQGLEWIGMIDPSNSDTRFNPNFKDKATLNVDRSSNTAYMLLSSLTSADSAVYYCATYGSYVSPLDYWGQGTSVTVSSGGGGSGGGGSGGGGSDIMMSQSPSSLTVSVGEKVTVSCKSSQSLLYTSSQKNYLAWYQQKPGQSPKLLIYWASTRESGVPDRFTGSGSGTDFTLTITSVKADDLAVYYCQQYYAYPWTFGGGTKLEIKRASTTTPAPRPPTPAPTIASQPLSLRPEACRPAAGGAVHTRGLDFACDFWVLVVVGGVLACYSLLVTVAFIIFWVRSKRSRLLHSDYMNMTPRRPGPTRKHYQPYAPPRDFAAYRSLRVKFSRSADAPAYQQGQNQLYNELNLGRREEYDVLDKRRGRDPEMGGKPRRKNPQEGLYNELQKDKMAEAYSEIGMKGERRRGKGHDGLYQGLSTATKDTYDALHMQALPPR
notes: residues of P2A left at the intracellular C-terminus are not included; also called parent Affy7 CAR-T cells; parental Affy7
cytotoxicity, Normal Human Liver Cells, 8 hrs [1]: 23.4
cytotoxicity, Normal Human Liver Cells, 16 hrs [1]: 36.9
cytotoxicity, Normal Human Liver Cells, 24 hrs [1]: 50.7
cytotoxicity, Normal Human Liver Cells, 32 hrs [1]: 64
cytotoxicity, Normal Human Liver Cells, 40 hrs [1]: 71.2
cytotoxicity, Normal Human Liver Cells, 48 hrs [1]: 73.4
percent cytotoxicity, SNU638, 24 hrs [2]: 78.6%
percent cytotoxicity, SNU638, 48 hrs [2]: 95.9%
percent cytotoxicity, SNU638, 72 hrs [2]: 99.5%
percent cytotoxicity, Hs746T, 24 hrs [3]: 87.1%
percent cytotoxicity, Hs746T, 48 hrs [3]: 97.6%
percent cytotoxicity, Hs746T, 72 hrs [3]: 99.2%
cytotoxicity, Normal Human Kidney Cells, 8 hrs [4]: 12.5
cytotoxicity, Normal Human Kidney Cells, 16 hrs [4]: 27.2
cytotoxicity, Normal Human Kidney Cells, 24 hrs [4]: 32.4
cytotoxicity, Normal Human Kidney Cells, 32 hrs [4]: 36.9
cytotoxicity, Normal Human Kidney Cells, 40 hrs [4]: 47.4
cytotoxicity, Normal Human Kidney Cells, 48 hrs [4]: 59
cytotoxicity, Normal Human Colon Cells, 8 hrs [5]: 13.8
cytotoxicity, Normal Human Colon Cells, 16 hrs [5]: 29.3
cytotoxicity, Normal Human Colon Cells, 24 hrs [5]: 34.9
cytotoxicity, Normal Human Colon Cells, 32 hrs [5]: 42.8
cytotoxicity, Normal Human Colon Cells, 40 hrs [5]: 54.1
cytotoxicity, Normal Human Colon Cells, 48 hrs [5]: 60.1
EC50 [6]: 50 nM
cytotoxicity, Normal Human Kidney Cells, 8 hrs [7]: 32.7
cytotoxicity, Normal Human Kidney Cells, 16 hrs [7]: 43.5
cytotoxicity, Normal Human Kidney Cells, 24 hrs [7]: 53.8
cytotoxicity, Normal Human Kidney Cells, 32 hrs [7]: 61.2
cytotoxicity, Normal Human Kidney Cells, 40 hrs [7]: 70.2
cytotoxicity, Normal Human Kidney Cells, 48 hrs [7]: 76.5
cytotoxicity, Normal Human Lung Cells, 8 hrs [8]: 31.8
cytotoxicity, Normal Human Lung Cells, 16 hrs [8]: 35.7
cytotoxicity, Normal Human Lung Cells, 24 hrs [8]: 43.2
cytotoxicity, Normal Human Lung Cells, 32 hrs [8]: 55.8
cytotoxicity, Normal Human Lung Cells, 40 hrs [8]: 67.5
cytotoxicity, Normal Human Lung Cells, 48 hrs [8]: 76
cytotoxicity, Normal Human Lung Cells, 8 hrs [9]: 14.7
cytotoxicity, Normal Human Lung Cells, 16 hrs [9]: 33.3
cytotoxicity, Normal Human Lung Cells, 24 hrs [9]: 50.7
cytotoxicity, Normal Human Lung Cells, 32 hrs [9]: 57.1
cytotoxicity, Normal Human Lung Cells, 40 hrs [9]: 59.9
cytotoxicity, Normal Human Lung Cells, 47 hrs [9]: 56.5
cytotoxicity, Normal Human Colon Cells, 8 hrs [10]: 28.5
cytotoxicity, Normal Human Colon Cells, 16 hrs [10]: 33.9
cytotoxicity, Normal Human Colon Cells, 24 hrs [10]: 43.2
cytotoxicity, Normal Human Colon Cells, 32 hrs [10]: 57
cytotoxicity, Normal Human Colon Cells, 40 hrs [10]: 69.7
cytotoxicity, Normal Human Colon Cells, 48 hrs [10]: 79.4
percent cytotoxicity, H1993, 24 hrs [11]: 85.6%
percent cytotoxicity, H1993, 48 hrs [11]: 97.7%
percent cytotoxicity, H1993, 72 hrs [11]: 99.6%
cytotoxicity, Normal Human Liver Cells, 8 hrs [12]: 17.7
cytotoxicity, Normal Human Liver Cells, 16 hrs [12]: 30.1
cytotoxicity, Normal Human Liver Cells, 24 hrs [12]: 38.6
cytotoxicity, Normal Human Liver Cells, 32 hrs [12]: 46.2
cytotoxicity, Normal Human Liver Cells, 40 hrs [12]: 59.1
cytotoxicity, Normal Human Liver Cells, 48 hrs [12]: 68.7
EC50 [13]: 100 nM

B2: Affy6 CAR (control) (other)
chain: GSEQKLISEEDLGSQVQLVQSGAEVKKPGASVKVSCKASGYIFTAYTMHWVRQAPGQGLEWMGWIKPNNGLANYAQKFQGRVTMTRDTSISTAYMELSRLRSDDTAVYYCARSEITTEFDYWGQGTLVTVSSGGGGSGGGGSGGGGSDIVLTQSPDSLAVSLGERATINCKSSESVDSYANSFMHWYQQKPGQPPKLLIYRASTRESGVPDRFSGSGSRTDFTLTISSLQAEDVAVYYCQQSKEDPLTFGGGTKVEIKASTTTPAPRPPTPAPTIASQPLSLRPEACRPAAGGAVHTRGLDFACDFWVLVVVGGVLACYSLLVTVAFIIFWVRSKRSRLLHSDYMNMTPRRPGPTRKHYQPYAPPRDFAAYRSLRVKFSRSADAPAYQQGQNQLYNELNLGRREEYDVLDKRRGRDPEMGGKPRRKNPQEGLYNELQKDKMAEAYSEIGMKGERRRGKGHDGLYQGLSTATKDTYDALHMQALPPR
notes: Chimeric antigen receptor on transduced human T cells; P2A remnant not included; also called parent Affy6 CAR-T cells; parental Affy6
cytotoxicity, Normal Human Colon Cells, 8 hrs [14]: 24.6
cytotoxicity, Normal Human Colon Cells, 16 hrs [14]: 37.7
cytotoxicity, Normal Human Colon Cells, 24 hrs [14]: 46.4
cytotoxicity, Normal Human Colon Cells, 32 hrs [14]: 57.3
cytotoxicity, Normal Human Colon Cells, 40 hrs [14]: 72.3
cytotoxicity, Normal Human Colon Cells, 48 hrs [14]: 83.8
cytotoxicity, Normal Human Liver Cells, 8 hrs [15]: 28.4
cytotoxicity, Normal Human Liver Cells, 16 hrs [15]: 47.1
cytotoxicity, Normal Human Liver Cells, 24 hrs [15]: 59
cytotoxicity, Normal Human Liver Cells, 32 hrs [15]: 67.9
cytotoxicity, Normal Human Liver Cells, 40 hrs [15]: 76.8
cytotoxicity, Normal Human Liver Cells, 48 hrs [15]: 83.6
EC50 [6]: 20 nM
cytotoxicity, Normal Human Lung Cells, 8 hrs [16]: 38.4
cytotoxicity, Normal Human Lung Cells, 16 hrs [16]: 47.1
cytotoxicity, Normal Human Lung Cells, 24 hrs [16]: 54.7
cytotoxicity, Normal Human Lung Cells, 32 hrs [16]: 63.1
cytotoxicity, Normal Human Lung Cells, 40 hrs [16]: 76.4
cytotoxicity, Normal Human Lung Cells, 48 hrs [16]: 85.2
cytotoxicity, Normal Human Kidney Cells, 8 hrs [17]: 25.7
cytotoxicity, Normal Human Kidney Cells, 16 hrs [17]: 45.4
cytotoxicity, Normal Human Kidney Cells, 24 hrs [17]: 57
cytotoxicity, Normal Human Kidney Cells, 32 hrs [17]: 65.5
cytotoxicity, Normal Human Kidney Cells, 40 hrs [17]: 73
cytotoxicity, Normal Human Kidney Cells, 48 hrs [17]: 78.8
EC50 [13]: 20 nM
